Experimental data as given in publication PMC4652773, “Functional significance of protein assemblies predicted by the crystal structure of the restriction endonuclease BsaWI”.
One block for each molecule: values may come before it.

Legend:
[1] = biological target: BsaWI R130A (Bacillus stearothermophilus W1718); assay: SEC; gel filtration at 5 μM loading concentration; Superdex column, room temperature, 20 mM Tris-HCl pH 7.4, 0.5 M NaCl, 5% glycerol; oligomeric state from the apparent Mw
[2] = biological target: BsaWI R130A (Bacillus stearothermophilus W1718); assay: native gel or EMSA; 1 nM 33P-labeled 30-bp SP duplex with 0.02-1000 nM protein, 40 mM Tris-acetate pH 8.3, 0.1 mg/ml BSA, 10% glycerol, 5 mM CaCl2, room temperature; oligomeric state of the DNA-bound protein read from the mobility of the complex
[3] = biological target: BsaWI R130A (Bacillus stearothermophilus W1718); assay: SEC; gel filtration of the tetramerization interface mutants at up to 25 μM protein; Superdex column, room temperature, 20 mM Tris-HCl pH 7.4, 0.5 M NaCl, 5% glycerol
[4] = biological target: BsaWI R130A (Bacillus stearothermophilus W1718)
[5] = biological target: BsaWI R259A&W262A (Bacillus stearothermophilus W1718); assay: SEC; gel filtration at 5 μM loading concentration; Superdex column, room temperature, 20 mM Tris-HCl pH 7.4, 0.5 M NaCl, 5% glycerol; oligomeric state from the apparent Mw
[6] = biological target: BsaWI R259A&W262A (Bacillus stearothermophilus W1718); assay: native gel or EMSA; 1 nM 33P-labeled 30-bp SP duplex with 0.02-1000 nM protein, 40 mM Tris-acetate pH 8.3, 0.1 mg/ml BSA, 10% glycerol, 5 mM CaCl2, room temperature; oligomeric state of the DNA-bound protein read from the mobility of the complex
[7] = biological target: BsaWI R259A&W262A (Bacillus stearothermophilus W1718); assay: SEC; gel filtration of the tetramerization interface mutants at up to 25 μM protein; Superdex column, room temperature, 20 mM Tris-HCl pH 7.4, 0.5 M NaCl, 5% glycerol
[8] = biological target: BsaWI R259A&W262A (Bacillus stearothermophilus W1718)
[9] = biological target: restriction endonuclease BsaWI, wild type (Bacillus stearothermophilus W1718); assay: SEC; gel filtration at 5 μM loading concentration; Superdex column, room temperature, 20 mM Tris-HCl pH 7.4, 0.5 M NaCl, 5% glycerol; oligomeric state from the apparent Mw
[10] = biological target: restriction endonuclease BsaWI, wild type (Bacillus stearothermophilus W1718); assay: native gel or EMSA; 1 nM 33P-labeled 30-bp SP duplex with 0.02-1000 nM protein, 40 mM Tris-acetate pH 8.3, 0.1 mg/ml BSA, 10% glycerol, 5 mM CaCl2, room temperature; oligomeric state of the DNA-bound protein read from the mobility of the complex
[11] = biological target: restriction endonuclease BsaWI, wild type (Bacillus stearothermophilus W1718); assay: SEC; gel filtration of the BsaWI-DNA complex with the 30 bp SP oligoduplex; Superdex column, room temperature, 20 mM Tris-HCl pH 7.4, 0.5 M NaCl, 5% glycerol
[12] = biological target: restriction endonuclease BsaWI, wild type (Bacillus stearothermophilus W1718); assay: SEC; gel filtration at 2.5-5 μM loading concentration (concentration series); Superdex column, room temperature, 20 mM Tris-HCl pH 7.4, 0.5 M NaCl, 5% glycerol
[13] = biological target: restriction endonuclease BsaWI, wild type (Bacillus stearothermophilus W1718); assay: SEC; gel filtration at low loading concentrations (0.25-1 μM); Superdex column, room temperature, 20 mM Tris-HCl pH 7.4, 0.5 M NaCl, 5% glycerol
[14] = biological target: restriction endonuclease BsaWI, wild type (Bacillus stearothermophilus W1718)
[15] = biological target: BsaWI E128A&W262A (Bacillus stearothermophilus W1718); assay: SEC; gel filtration at 5 μM loading concentration; Superdex column, room temperature, 20 mM Tris-HCl pH 7.4, 0.5 M NaCl, 5% glycerol; oligomeric state from the apparent Mw
[16] = biological target: BsaWI E128A&W262A (Bacillus stearothermophilus W1718); assay: native gel or EMSA; 1 nM 33P-labeled 30-bp SP duplex with 0.02-1000 nM protein, 40 mM Tris-acetate pH 8.3, 0.1 mg/ml BSA, 10% glycerol, 5 mM CaCl2, room temperature; oligomeric state of the DNA-bound protein read from the mobility of the complex
[17] = biological target: BsaWI E128A&W262A (Bacillus stearothermophilus W1718); assay: SEC; gel filtration of the tetramerization interface mutants at up to 25 μM protein; Superdex column, room temperature, 20 mM Tris-HCl pH 7.4, 0.5 M NaCl, 5% glycerol
[18] = biological target: BsaWI E128A&W262A (Bacillus stearothermophilus W1718)
[19] = biological target: BsaWI R130A&R259A (Bacillus stearothermophilus W1718); assay: SEC; gel filtration at 5 μM loading concentration; Superdex column, room temperature, 20 mM Tris-HCl pH 7.4, 0.5 M NaCl, 5% glycerol; oligomeric state from the apparent Mw
[20] = biological target: BsaWI R130A&R259A (Bacillus stearothermophilus W1718); assay: native gel or EMSA; 1 nM 33P-labeled 30-bp SP duplex with 0.02-1000 nM protein, 40 mM Tris-acetate pH 8.3, 0.1 mg/ml BSA, 10% glycerol, 5 mM CaCl2, room temperature; oligomeric state of the DNA-bound protein read from the mobility of the complex
[21] = biological target: BsaWI R130A&R259A (Bacillus stearothermophilus W1718); assay: SEC; gel filtration of the tetramerization interface mutants at up to 25 μM protein; Superdex column, room temperature, 20 mM Tris-HCl pH 7.4, 0.5 M NaCl, 5% glycerol
[22] = biological target: BsaWI R130A&R259A (Bacillus stearothermophilus W1718)
[23] = biological target: BsaWI K85A (Bacillus stearothermophilus W1718); assay: SEC; gel filtration at 5 μM loading concentration; Superdex column, room temperature, 20 mM Tris-HCl pH 7.4, 0.5 M NaCl, 5% glycerol; oligomeric state from the apparent Mw
[24] = biological target: BsaWI E128A&R130A (Bacillus stearothermophilus W1718); assay: as above
[25] = biological target: BsaWI E128A&R130A (Bacillus stearothermophilus W1718); assay: native gel or EMSA; 1 nM 33P-labeled 30-bp SP duplex with 0.02-1000 nM protein, 40 mM Tris-acetate pH 8.3, 0.1 mg/ml BSA, 10% glycerol, 5 mM CaCl2, room temperature; oligomeric state of the DNA-bound protein read from the mobility of the complex
[26] = biological target: BsaWI E128A&R130A (Bacillus stearothermophilus W1718); assay: SEC; gel filtration of the tetramerization interface mutants at up to 25 μM protein; Superdex column, room temperature, 20 mM Tris-HCl pH 7.4, 0.5 M NaCl, 5% glycerol
[27] = biological target: BsaWI E128A&R130A (Bacillus stearothermophilus W1718)
[28] = biological target: BsaWI E128A (Bacillus stearothermophilus W1718); assay: SEC; gel filtration at 5 μM loading concentration; Superdex column, room temperature, 20 mM Tris-HCl pH 7.4, 0.5 M NaCl, 5% glycerol; oligomeric state from the apparent Mw
[29] = biological target: BsaWI E128A (Bacillus stearothermophilus W1718); assay: native gel or EMSA; 1 nM 33P-labeled 30-bp SP duplex with 0.02-1000 nM protein, 40 mM Tris-acetate pH 8.3, 0.1 mg/ml BSA, 10% glycerol, 5 mM CaCl2, room temperature; oligomeric state of the DNA-bound protein read from the mobility of the complex
[30] = biological target: BsaWI E128A (Bacillus stearothermophilus W1718); assay: SEC; gel filtration of the tetramerization interface mutants at up to 25 μM protein; Superdex column, room temperature, 20 mM Tris-HCl pH 7.4, 0.5 M NaCl, 5% glycerol
[31] = biological target: BsaWI E128A (Bacillus stearothermophilus W1718)
[32] = biological target: BsaWI D175A (Bacillus stearothermophilus W1718); assay: SEC; gel filtration at 5 μM loading concentration; Superdex column, room temperature, 20 mM Tris-HCl pH 7.4, 0.5 M NaCl, 5% glycerol; oligomeric state from the apparent Mw
[33] = biological target: BsaWI R259A (Bacillus stearothermophilus W1718); assay: as above
[34] = biological target: BsaWI R259A (Bacillus stearothermophilus W1718); assay: native gel or EMSA; 1 nM 33P-labeled 30-bp SP duplex with 0.02-1000 nM protein, 40 mM Tris-acetate pH 8.3, 0.1 mg/ml BSA, 10% glycerol, 5 mM CaCl2, room temperature; oligomeric state of the DNA-bound protein read from the mobility of the complex
[35] = biological target: BsaWI R259A (Bacillus stearothermophilus W1718); assay: SEC; gel filtration of the tetramerization interface mutants at up to 25 μM protein; Superdex column, room temperature, 20 mM Tris-HCl pH 7.4, 0.5 M NaCl, 5% glycerol
[36] = biological target: BsaWI R259A (Bacillus stearothermophilus W1718)
[37] = biological target: BsaWI D145A (Bacillus stearothermophilus W1718); assay: SEC; gel filtration at 5 μM loading concentration; Superdex column, room temperature, 20 mM Tris-HCl pH 7.4, 0.5 M NaCl, 5% glycerol; oligomeric state from the apparent Mw
BsaWI wt [38] = biological target: T1, BsaWI wt (UniProt Q6UQ65 1-272); assay: crystal structure; 0.02 M CaCl2 in crystallization buffer; no Ca2+ seen; pre-specific complex; 2.40 A; EMSA: 40 mM Tris-acetate pH 8.3, 0.1 mg/ml BSA, 10% glycerol, 5 mM CaCl2 or 0.1 mM EDTA, 1 nM DNA, room temperature, 15 min; details: protein: recombinant; chain copies: 4; blunt; self-complementary, 2 copies of strand
T1 sequence: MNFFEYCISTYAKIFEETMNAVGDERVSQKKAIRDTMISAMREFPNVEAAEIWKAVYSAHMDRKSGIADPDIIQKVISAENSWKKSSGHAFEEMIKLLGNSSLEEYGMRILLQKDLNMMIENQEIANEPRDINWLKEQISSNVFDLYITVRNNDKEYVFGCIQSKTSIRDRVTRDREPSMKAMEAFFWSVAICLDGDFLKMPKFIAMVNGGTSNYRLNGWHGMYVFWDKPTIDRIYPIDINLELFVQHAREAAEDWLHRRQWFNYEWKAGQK

BsaWI wt [39] = biological target: T1, BsaWI wt; assay: EMSA; 5 mM Ca2+; lower mobility complex; EMSA: 40 mM Tris-acetate pH 8.3, 0.1 mg/ml BSA, 10% glycerol, 5 mM CaCl2 or 0.1 mM EDTA, 1 nM DNA, room temperature, 15 min; details: protein: recombinant; chain copies: 4; label: 33P; blunt

- stoichiometry N [1]: 2
- stoichiometry N [2]: 2
- stoichiometry N [3]: 2
- ratio of DNA cleavage rate constants kobs for the 2-site and 1-site substrates at optimal enzyme concentration [4]: 2.4
Molecule: BsaWI R130A (enzyme)

- stoichiometry N [9]: 4
- stoichiometry N [10]: 4
- stoichiometry N [11]: 4
- stoichiometry N [12]: 4
- stoichiometry N [13]: 2
- ratio of DNA cleavage rate constants kobs for the 2-site and 1-site substrates at optimal enzyme concentration [14]: 20.6
Molecule: restriction endonuclease BsaWI, wild type (enzyme)

- stoichiometry N [19]: 2
- stoichiometry N [20]: 2
- stoichiometry N [21]: 2
- ratio of DNA cleavage rate constants kobs for the 2-site and 1-site substrates at optimal enzyme concentration [22]: 1.1
Molecule: BsaWI R130A&R259A (enzyme)

- stoichiometry N [24]: 2
- stoichiometry N [25]: 2
- stoichiometry N [26]: 2
- ratio of DNA cleavage rate constants kobs for the 2-site and 1-site substrates at optimal enzyme concentration [27]: 1.8
Molecule: BsaWI E128A&R130A (enzyme)

- stoichiometry N [32]: 4
Molecule: BsaWI D175A (enzyme)

- stoichiometry N [33]: 2
- stoichiometry N [34]: 2
- stoichiometry N [35]: 2
- ratio of DNA cleavage rate constants kobs for the 2-site and 1-site substrates at optimal enzyme concentration [36]: 14.4
Molecule: BsaWI R259A (enzyme)

- stoichiometry N [37]: 4
Molecule: BsaWI D145A (enzyme)

The next lines start with the molecule.

Molecule: BsaWI R259A&W262A (enzyme)
- stoichiometry N [5]: 2
- stoichiometry N [6]: 2
- stoichiometry N [7]: 2
- ratio of DNA cleavage rate constants kobs for the 2-site and 1-site substrates at optimal enzyme concentration [8]: 2.2

Molecule: BsaWI E128A&W262A (enzyme)
- stoichiometry N [15]: 2
- stoichiometry N [16]: 2
- stoichiometry N [17]: 2
- ratio of DNA cleavage rate constants kobs for the 2-site and 1-site substrates at optimal enzyme concentration [18]: 2.2

Molecule: BsaWI K85A (enzyme)
- stoichiometry N [23]: 4

Molecule: BsaWI E128A (enzyme)
- stoichiometry N [28]: 2
- stoichiometry N [29]: 2
- stoichiometry N [30]: 2
- ratio of DNA cleavage rate constants kobs for the 2-site and 1-site substrates at optimal enzyme concentration [31]: 17.9

B1: SP14 (dsDNA)
DNA 1: CTCGACCGGTCGAG
DNA 2: CTCGACCGGTCGAG
- binding result (BsaWI wt [38]): binds

B2: NSP (dsDNA)
DNA 1: AATGGGCTCGCACGCCTGGTATTATCGATTGTA
DNA 2: TACAATCGATAATACCAGGCGTGCGAGCCCATT
- Kd (BsaWI wt [39]): ~10 nM
